This note sets out measurements from FireProtDB (doi:10.1016/j.bbapap.2007.04.008).

Several values for one entry are separate records, joined by “and”; a condition that tells them apart may be missing. Identical values can stand only once.

For the series the following is noted: Brassica napus, pH 7, 27 °C, GdnHCl, phosphate 0.02 M, transition: 3, reversible: Yes, whole UniProt chain shown.

B1: Napin-1A wild type, P24565 (protein)
chain: QPQKCQREFQQEQHLRACQQWIRQQLAGSPFQSGPQEGPWLREQCCNELYQEDQVCVCPTLKQAAKSVRVQGQHGPFQSTRIYQIAKNLPNVCNMKQIGTCPFIAIPFFP
Take B1: where the note is “CD”, the denaturant m value is 1.8 kcal/mol/M and 1.2 kcal/mol/M; the unfolding free energy was 5.2 kcal/mol and 5.1 kcal/mol. Also, for the setting “Fluorescence”, the denaturant m value was 1.6 kcal/mol/M and 1.3 kcal/mol/M; the unfolding free energy was 5.2 kcal/mol and 5.1 kcal/mol.
